Measurements published in patent US20250051474A1, “ANTI-CD97 ANTIBODIES AND ANTIBODY-DRUG CONJUGATES” (New York University, priority 2023, published 2025).

What was measured:
[1] = molecular target: T1, CD97 (ADGRE5) isoform 2 ectodomain, purified and biotinylated (human, UniProt P48960 21-552, biotinylated in vitro using the BirA enzyme); test: bead-based binding titration (biotinylated antigen on streptavidin beads, flow cytometry), 1:1 fit
T1 construct: the whole entry for isoform 2 is named here; also called CD97 isoform 2
T1 sequence: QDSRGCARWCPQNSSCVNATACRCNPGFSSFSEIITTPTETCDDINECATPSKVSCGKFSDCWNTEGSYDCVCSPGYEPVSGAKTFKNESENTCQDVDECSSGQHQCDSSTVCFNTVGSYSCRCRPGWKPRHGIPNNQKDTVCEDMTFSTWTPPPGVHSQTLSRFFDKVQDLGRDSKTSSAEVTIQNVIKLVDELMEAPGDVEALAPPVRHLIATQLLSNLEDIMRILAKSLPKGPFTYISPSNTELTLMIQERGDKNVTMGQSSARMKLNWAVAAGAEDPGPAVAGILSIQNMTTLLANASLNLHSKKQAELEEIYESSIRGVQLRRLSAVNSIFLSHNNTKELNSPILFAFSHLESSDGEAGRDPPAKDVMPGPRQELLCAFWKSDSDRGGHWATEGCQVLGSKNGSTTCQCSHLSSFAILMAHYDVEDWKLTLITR

[2] = molecular target: T2, CD97 (ADGRE5) isoform 1 ectodomain, purified and biotinylated (human, UniProt P48960 21-552, limits assumed, biotinylated in vitro using the BirA enzyme); test: as above
T2 construct: the whole entry for isoform 1 is named here; also called CD97 isoform 1; Biotinylated CD97 isoform 1
T2 sequence: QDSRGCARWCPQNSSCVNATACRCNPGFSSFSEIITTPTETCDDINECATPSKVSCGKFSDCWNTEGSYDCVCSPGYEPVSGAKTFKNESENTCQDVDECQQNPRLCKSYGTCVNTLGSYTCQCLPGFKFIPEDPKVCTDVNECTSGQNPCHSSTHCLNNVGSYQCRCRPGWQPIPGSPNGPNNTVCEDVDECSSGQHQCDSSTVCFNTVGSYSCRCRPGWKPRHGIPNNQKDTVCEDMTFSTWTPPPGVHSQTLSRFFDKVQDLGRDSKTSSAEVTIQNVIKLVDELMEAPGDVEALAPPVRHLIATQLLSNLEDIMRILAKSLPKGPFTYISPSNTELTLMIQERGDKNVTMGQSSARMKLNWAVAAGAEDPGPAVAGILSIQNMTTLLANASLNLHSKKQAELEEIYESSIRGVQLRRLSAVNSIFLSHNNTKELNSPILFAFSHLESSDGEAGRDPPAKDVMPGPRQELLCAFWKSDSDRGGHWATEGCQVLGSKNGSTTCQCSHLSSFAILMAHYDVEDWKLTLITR

[3] = molecular target: T2, CD97 (ADGRE5) isoform 1 ectodomain, …; test: bead-based binding assay: biotinylated CD97 isoform 1 on streptavidin beads, Fab titrated, flow cytometry MFI, 1:1 fit; EXPERIMENT 2
Procedure: (§1) KD values were determined from the curve fitting of a 1:1 binding model.

K519A = molecular target: T3, K519A (human, UniProt P48960); test: cell-based binding assay: CD97 GAIN mutant transiently expressed on ExpiCHO cells, A8 Fab titrated, flow cytometry MFI, 1:1 fit; upper panel
T3 construct: transiently expressed on the surface of ExpiCHO cells, gated by anti-V5 tag staining; also called CD97 GAIN mutant K519A expressed on ExpiCHO cells
T3 sequence (receptor, looked up): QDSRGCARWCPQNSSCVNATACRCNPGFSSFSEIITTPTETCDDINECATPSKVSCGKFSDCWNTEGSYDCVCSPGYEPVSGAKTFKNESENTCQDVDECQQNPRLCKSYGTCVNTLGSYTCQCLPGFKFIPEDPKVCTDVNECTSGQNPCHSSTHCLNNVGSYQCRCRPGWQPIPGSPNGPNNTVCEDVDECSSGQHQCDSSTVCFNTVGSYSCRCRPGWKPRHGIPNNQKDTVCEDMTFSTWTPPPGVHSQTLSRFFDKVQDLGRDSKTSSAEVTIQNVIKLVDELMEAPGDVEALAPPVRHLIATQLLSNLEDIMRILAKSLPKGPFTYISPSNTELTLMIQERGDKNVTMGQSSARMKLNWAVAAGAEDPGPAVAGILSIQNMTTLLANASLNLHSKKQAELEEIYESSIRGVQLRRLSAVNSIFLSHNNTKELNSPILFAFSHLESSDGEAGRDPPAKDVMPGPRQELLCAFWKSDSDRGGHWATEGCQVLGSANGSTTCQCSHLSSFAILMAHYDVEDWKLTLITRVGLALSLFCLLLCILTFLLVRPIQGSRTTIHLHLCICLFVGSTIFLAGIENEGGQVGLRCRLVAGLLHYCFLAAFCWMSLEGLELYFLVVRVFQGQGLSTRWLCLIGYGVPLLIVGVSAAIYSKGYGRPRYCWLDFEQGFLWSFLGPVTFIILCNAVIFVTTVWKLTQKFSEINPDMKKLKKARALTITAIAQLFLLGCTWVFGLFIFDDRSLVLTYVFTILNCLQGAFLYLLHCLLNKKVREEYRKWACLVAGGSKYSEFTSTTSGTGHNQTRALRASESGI
Procedure: as §1

B1: Antibody clone A8, Fab format (Fab, V domains shown)
VH: EVQLVESGGGLVQPGGSLRLSCAASGFTISSYSIHWVRQAPGKGLEWVASISPYYGSTSYADSVKGRFTISADTSKNTAYLQMNSLRAEDTAVYYCARSWYYYEQNPYWYQKEEQALDYWGQGTLVTVSS
VL: DIQMTQSPSSLSASVGDRVTITCRASQSVSSAVAWYQQKPGKAPKLLIYSASSLYSGVPSRFSGSRSGTDFTLTISSLQPEDFATYYCQQSVYSPVTFGQGTKVEIKR
notes: Fab; also called wild type A8
[1]
  Kd: 2.2 nM
[2]
  Kd: 2.4 nM
[3]
  Kd: 9.5 nM
K519A
  Kd: 110 nM
